Source: patent US20100105612A1

Target: mouse RANK (RANKL receptor on RAW264 cells) (mouse) (UniProt O35305)
Assay: cell-based or functional assay

Sequence of UniProt O35305 (O35305 31-625): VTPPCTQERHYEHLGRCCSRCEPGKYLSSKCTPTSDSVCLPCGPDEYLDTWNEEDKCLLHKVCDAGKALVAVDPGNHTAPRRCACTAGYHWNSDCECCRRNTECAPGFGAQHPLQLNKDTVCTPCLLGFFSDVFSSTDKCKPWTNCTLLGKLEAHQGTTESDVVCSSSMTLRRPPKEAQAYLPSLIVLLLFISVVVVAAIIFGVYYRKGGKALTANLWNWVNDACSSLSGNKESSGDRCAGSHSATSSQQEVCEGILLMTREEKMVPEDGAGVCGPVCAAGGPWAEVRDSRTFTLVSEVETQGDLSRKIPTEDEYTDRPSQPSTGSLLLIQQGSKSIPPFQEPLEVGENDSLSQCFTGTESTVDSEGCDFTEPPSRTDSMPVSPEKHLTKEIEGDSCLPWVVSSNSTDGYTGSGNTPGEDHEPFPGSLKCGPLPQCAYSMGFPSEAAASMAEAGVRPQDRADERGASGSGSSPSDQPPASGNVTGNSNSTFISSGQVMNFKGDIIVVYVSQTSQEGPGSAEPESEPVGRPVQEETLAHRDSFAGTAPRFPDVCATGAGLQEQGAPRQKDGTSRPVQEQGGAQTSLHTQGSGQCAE

osteoclast induction activity in RAW264 cells (at concentrations of 10 nM and 5 nM) (fold over mouse soluble RANKL): > 2
Substance: GST-RANKL (fused protein of glutathione-S-transferase with human soluble RANKL residues 140-317) (ligand)
